Measured values from patent publication US20100261178A1.

What was measured:
[1] = target: human adiponectin receptor AdipoR1 (human) (UniProt Q96A54)
[2] = target: human adiponectin receptor AdipoR2 (human) (UniProt Q86V24)

adiponectin (ligand)
EC50 of adiponectin for repression of FET3-lacZ [1]: 0.7 pM
log EC50 pM of adiponectin for repression of FET3-lacZ [1]: -0.13 log EC50 pM
EC50 of adiponectin for repression of FET3-lacZ [2]: 2.4 pM
log EC50 pM of adiponectin for repression of FET3-lacZ [2]: 0.38 log EC50 pM
